Target: T1, human CD22 (human, UniProt P20273 20-847)
T1 construct: whole, on cells; Always presented on living CD22+ tumor cells (Raji for all numbers); also called CD22 antigen; target antigen
T1 sequence (looked up): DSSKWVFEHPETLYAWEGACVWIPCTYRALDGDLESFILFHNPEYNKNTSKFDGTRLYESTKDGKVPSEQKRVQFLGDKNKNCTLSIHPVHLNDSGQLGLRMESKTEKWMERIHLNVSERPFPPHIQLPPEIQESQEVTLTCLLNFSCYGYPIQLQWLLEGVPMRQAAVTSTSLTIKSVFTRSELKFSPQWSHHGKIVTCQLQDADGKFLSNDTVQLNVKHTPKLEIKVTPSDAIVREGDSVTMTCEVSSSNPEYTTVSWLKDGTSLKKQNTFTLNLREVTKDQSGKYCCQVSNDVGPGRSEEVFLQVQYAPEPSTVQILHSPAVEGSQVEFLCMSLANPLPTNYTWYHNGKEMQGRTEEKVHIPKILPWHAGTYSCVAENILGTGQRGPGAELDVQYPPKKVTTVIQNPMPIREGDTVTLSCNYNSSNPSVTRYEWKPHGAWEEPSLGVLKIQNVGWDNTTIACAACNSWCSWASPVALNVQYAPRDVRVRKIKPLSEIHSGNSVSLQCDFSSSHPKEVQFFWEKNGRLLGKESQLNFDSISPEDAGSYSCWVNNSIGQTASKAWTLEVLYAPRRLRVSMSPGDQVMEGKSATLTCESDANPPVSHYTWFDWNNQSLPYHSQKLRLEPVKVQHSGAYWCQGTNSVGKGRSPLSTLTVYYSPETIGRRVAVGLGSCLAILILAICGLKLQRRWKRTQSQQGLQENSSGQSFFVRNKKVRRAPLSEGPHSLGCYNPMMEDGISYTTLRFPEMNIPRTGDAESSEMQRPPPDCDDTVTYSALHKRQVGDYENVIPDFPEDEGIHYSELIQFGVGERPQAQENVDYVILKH
Assay: flow cytometry on CD22+ Raji cells, equilibrium binding, non-linear regression
Experimental: Specific binding of the constructs was determined by flow cytometry using the human CD22⁺ B cell lines Raji, Ramos, Daudi and CA46. Human T cell lines Jurkat and HUT102 were used as negative controls. Cells (5×10⁵) were incubated with 100 μl of a sample containing either the scFv fragments, or control antibodies, in FACS buffer (PBS, 0.1% NaN₃, 2% FBS) for 45 min at 4° C. in round bottom 96-well microtiter plates. Cells were pelleted at 200 g at 4° C. for 5 min and washed twice with 200 μl FACS buffer. […] Background fluorescence was determined by using cells incubated with 9E10 antibody and FITC-labeled anti-mouse antibody under the same conditions. Stained cells were analyzed on a FACScan Flow Cytometer (BD Bioscience, San Jose, Calif.), and median fluorescence intensity (MFI) was calculated using the CellQuest™ software (BD Bioscience).
Affinity measurements were performed as previously described (Benedict et al., J Immunol Methods 201:223-231, 1997) with the following modifications: Varying concentrations of antibodies were incubated in triplicate with 5×10⁵ Raji cells at room temperature in FACS buffer for two hours. Bound antibodies were detected under the same conditions, as described above. After two final washing steps, cells were fixed in PBS containing 2% paraformaldehyde for 15 minutes at room temperature and analyzed by flow cytometry. […]

B1: murine monoclonal antibody RFB4 (antibody, V domains shown)
VH: EVQLVESGGGLVKPGGSLKLSCAASGFAFSIYDMSWVRQTPEKRLEWVAYISSGGGTTYYPDTVKGRFTISRDNAKNTLYLQMSSLKSEDTAMYYCARHSGYGSSYGVLFAYWGQGTLVTVSA
VL: DIQMTQTTSSLSASLGDRVTISCRASQDISNYLNWYQQKPDGTVKLLIYYTSILHSGVPSRFSGSGSGTDYSLTISNLEQEDFATYFCQQGNTLPWTFGGGTKLEIK
notes: also called mAb RFB4; murine mAb RFB4
Kd: 2 nM
